# Source: patent US20240199740A1 (Ablynx, published 2024)
# T1: recombinant human CD123 protein (R&D Systems, 301-R3/CF) (human, UniProt P26951 19-305)
# T1 construct: Bought recombinant His-tagged extracellular domain of human CD123; also called recombinant CD123; in house biotinylated-CD123 recombinant protein; not shown: His tag of the bought protein
# T1 sequence: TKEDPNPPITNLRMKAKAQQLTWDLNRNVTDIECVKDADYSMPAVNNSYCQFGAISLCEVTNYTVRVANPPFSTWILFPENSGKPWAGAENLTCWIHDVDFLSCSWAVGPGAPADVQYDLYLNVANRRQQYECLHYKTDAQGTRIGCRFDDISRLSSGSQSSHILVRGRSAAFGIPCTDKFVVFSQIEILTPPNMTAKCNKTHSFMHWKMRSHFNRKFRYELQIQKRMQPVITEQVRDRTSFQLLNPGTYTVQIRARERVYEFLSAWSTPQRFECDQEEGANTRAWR
# T2: cynomolgus CD123 expressed on HEK Flp-In cells (cynomolgus)
# T2 construct: EHH61867.1; also called cyCD123; cyno CD123
# T2 chain: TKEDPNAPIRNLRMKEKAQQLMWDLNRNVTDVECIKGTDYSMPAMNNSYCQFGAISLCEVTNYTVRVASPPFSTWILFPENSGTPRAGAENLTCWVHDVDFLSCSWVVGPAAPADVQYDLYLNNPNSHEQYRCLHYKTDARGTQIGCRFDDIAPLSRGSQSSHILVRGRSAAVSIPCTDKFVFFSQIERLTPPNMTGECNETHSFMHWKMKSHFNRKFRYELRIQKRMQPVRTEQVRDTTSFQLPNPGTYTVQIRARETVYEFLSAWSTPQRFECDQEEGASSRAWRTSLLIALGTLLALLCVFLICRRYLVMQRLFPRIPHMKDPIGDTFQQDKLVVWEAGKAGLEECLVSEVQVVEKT
# B1: T017000115 (bispecific antibody)
# chain: EVQLVESGGGLVQAGGSLRLSCAASGITSKINDMGWYRQTPGNYREWVASITATGTTNYRDSVKGRFTISRDNAKSTVYLQMNSLKPEDTTVYYCNTFPPISNFWGQGTLVTVSSGGGGSGGGGSGGGGSGGGGSGGGGSGGGGSGGGGSEVQLVESGGGSVQAGGSLRLSCAASGYTIGPYCMGWFRQAPGKEREGVAAINMGGGITYYADSVKGRFTISQDNAKNTVYLLMNSLEPEDTAIYYCAADSTIYASYYECGHGLSTGGYGYDSWGQGTLVTVSSGGGGSGGGGSGGGGSGGGGSGGGGSGGGGSGGGGSEVQLVESGGGLVQPGGSLRLSCVASGDVHKINFLGWYRQAPGKEREKVAHISIGDQTDYADSAKGRFTISRDESKNMVYLQMNSLKPEDTAVYFCRAFSRIYPYDYWGQGTLVTVSS
# notes: Multispecific Nanobody polypeptide expressed in Pichia; also called A0110056A10-35GS-cAbLys3(D1E,Q5V,A6E,Q108L)-35GS-T0170056G05-FLAG3-HIS6; not shown: C-terminal FLAG3-HIS6 tag
# B2: T017000121 (bispecific antibody)
# chain: EVQLVESGGGSVQAGGSLRLSCAASGYTIGPYCMGWFRQAPGKEREGVAAINMGGGITYYADSVKGRFTISQDNAKNTVYLLMNSLEPEDTAIYYCAADSTIYASYYECGHGLSTGGYGYDSWGQGTLVTVSSGGGGSGGGGSGGGGSGGGGSGGGGSGGGGSGGGGSEVQLVESGGGLVQAGGSLRLSCAASGITSKINDMGWYRQTPGNYREWVASITATGTTNYRDSVKGRFTISRDNAKSTVYLQMNSLKPEDTTVYYCNTFPPISNFWGQGTLVTVSSGGGGSGGGGSGGGGSGGGGSGGGGSGGGGSGGGGSEVQLVESGGGLVQPGGSLRLSCVASGDVHKINFLGWYRQAPGKEREKVAHISIGDQTDYADSAKGRFTISRDESKNMVYLQMNSLKPEDTAVYFCRAFSRIYPYDYWGQGTLVTVSS
# notes: Multispecific Nanobody polypeptide expressed in Pichia; also called cAbLys3(D1E,Q5V,A6E,Q108L)-35GS-A0110056A10-35GS-T0170056G05-FLAG3-HIS6; not shown: C-terminal FLAG3-HIS6 tag
# B3: T017000114 (bispecific antibody)
# chain: EVQLVESGGGLVQAGGPLRLSCAASGRTFSSYVMGWFRQAPGKEREFVAAIYWSNGKTQYTDSVKGRFTISGDNAKNTVYLQMNSLNPEDTAVYYCVADKDETGFRTLPIAYDYWGQGTLVTVSSGGGGSGGGGSGGGGSGGGGSGGGGSGGGGSGGGGSEVQLVESGGGLVQAGGSLRLSCAASGITSKINDMGWYRQTPGNYREWVASITATGTTNYRDSVKGRFTISRDNAKSTVYLQMNSLKPEDTTVYYCNTFPPISNFWGQGTLVTVSSGGGGSGGGGSGGGGSGGGGSGGGGSGGGGSGGGGSEVQLVESGGGLVQPGGSLRLSCVASGDVHKINFLGWYRQAPGKEREKVAHISIGDQTDYADSAKGRFTISRDESKNMVYLQMNSLKPEDTAVYFCRAFSRIYPYDYWGQGTLVTVSS
# notes: Multispecific Nanobody polypeptide expressed in Pichia; also called A0110055F03-35GS-A0110056A10-35GS-T0170056G05-FLAG3-HIS6; not shown: C-terminal FLAG3-HIS6 tag
# B4: T017000113 (bispecific antibody)
# chain: EVQLVESGGGLVQAGGPLRLSCAASGRTFSSYVMGWFRQAPGKEREFVAAIYWSNGKTQYTDSVKGRFTISGDNAKNTVYLQMNSLNPEDTAVYYCVADKDETGFRTLPIAYDYWGQGTLVTVSSGGGGSGGGGSGGGGSGGGGSGGGGSGGGGSGGGGSEVQLVESGGGSVQAGGSLRLSCAASGYTIGPYCMGWFRQAPGKEREGVAAINMGGGITYYADSVKGRFTISQDNAKNTVYLLMNSLEPEDTAIYYCAADSTIYASYYECGHGLSTGGYGYDSWGQGTLVTVSSGGGGSGGGGSGGGGSGGGGSGGGGSGGGGSGGGGSEVQLVESGGGLVQPGGSLRLSCVASGDVHKINFLGWYRQAPGKEREKVAHISIGDQTDYADSAKGRFTISRDESKNMVYLQMNSLKPEDTAVYFCRAFSRIYPYDYWGQGTLVTVSS
# notes: Multispecific Nanobody polypeptide expressed in Pichia; also called A0110055F03-35GS-cAbLys3(D1E,Q5V,A6E,Q108L)-35GS-T0170056G05-FLAG3-HIS6; not shown: C-terminal FLAG3-HIS6 tag
# B5: T017000120 (bispecific antibody)
# chain: EVQLVESGGGSVQAGGSLRLSCAASGYTIGPYCMGWFRQAPGKEREGVAAINMGGGITYYADSVKGRFTISQDNAKNTVYLLMNSLEPEDTAIYYCAADSTIYASYYECGHGLSTGGYGYDSWGQGTLVTVSSGGGGSGGGGSGGGGSGGGGSGGGGSGGGGSGGGGSEVQLVESGGGLVQAGGPLRLSCAASGRTFSSYVMGWFRQAPGKEREFVAAIYWSNGKTQYTDSVKGRFTISGDNAKNTVYLQMNSLNPEDTAVYYCVADKDETGFRTLPIAYDYWGQGTLVTVSSGGGGSGGGGSGGGGSGGGGSGGGGSGGGGSGGGGSEVQLVESGGGLVQPGGSLRLSCVASGDVHKINFLGWYRQAPGKEREKVAHISIGDQTDYADSAKGRFTISRDESKNMVYLQMNSLKPEDTAVYFCRAFSRIYPYDYWGQGTLVTVSS
# notes: Multispecific Nanobody polypeptide expressed in Pichia; also called cAbLys3(D1E,Q5V,A6E,Q108L)-35GS-A0110055F03-35GS-T0170056G05-FLAG3-HIS6; not shown: C-terminal FLAG3-HIS6 tag
# B6: T017000134 (bispecific antibody)
# chain: VQLVESGGGLVQAGGSLRLSCAASGITSKINDMGWYRQTPGNYREWVASITATGTTNYRDSVKGRFTISRDNAKSTVYLQMNSLKPEDTTVYYCNTFPPISNFWGQGTLVTVSSGGGGSGGGGSGGGGSGGGGSGGGGSGGGGSGGGGSEVQLVESGGGLVQPGGSLRLSCVASGDVHKINFLGWYRQAPGKEREKVAHISIGDQTDYADSAKGRFTISRDESKNMVYLQMNSLKPEDTAVYFCRAFSRIYPYDYWGQGTLVTVSSGGGGSGGGGSGGGGSGGGGSGGGGSGGGGSGGGGSEVQLVESGGGLVQAGGPLRLSCAASGRTFSSYVMGWFRQAPGKEREFVAAIYWSNGKTQYTDSVKGRFTISGDNAKNTVYLQMNSLNPEDTAVYYCVADKDETGFRTLPIAYDYWGQGTLVTVSSA
# B7: T017000128 (bispecific antibody)
# chain: DVQLVESGGGLVQPGGSLRLSCVASGDVHKINFLGWYRQAPGKEREKVAHISIGDQTDYADSAKGRFTISRDESKNMVYLQMNSLKPEDTAVYFCRAFSRIYPYDYWGQGTLVTVSSGGGGSGGGGSGGGGSGGGGSGGGGSGGGGSGGGGSEVQLVESGGGLVQAGGSLRLSCAASGITSKINDMGWYRQTPGNYREWVASITATGTTNYRDSVKGRFTISRDNAKSTVYLQMNSLKPEDTTVYYCNTFPPISNFWGQGTLVTVSSA
# Assays:
# [1] = target: T1, recombinant human CD123 protein (R&D …); assay: SPR (ProteOn XPR36), CD123 immobilized; values only indicative (incomplete regeneration)
# Description: (§1) Binding affinities for the CD123/TCR multispecific polypeptides were evaluated by means of an SPR based affinity determination on a ProteOn XPR36 instrument. […] The dissociation time of the 1000 nM sample was 15 min. Flow rate was 45 μl/min and ProteOn running buffer (PBS, pH 7.4, 0.005% Tween 20) was used as running buffer. Evaluation of the association/dissociation data was performed by fitting a 1:1 interaction model (Langmuir binding model).
# [2] = target: T3, human CD123 expressed on cells (human, UniProt P26951 19-378); assay: flow cytometry competition, CHO Flp-In huCD123 cells, competitor A0110056A10-Alexa647 (0.9 nM)
# T3 construct: the cell line is named under assay; also called huCD123; IL-3Rα
# Description: (§2) Next to binding to the MOLM-13 and CHO Flp-In huCD123 cells, binding to cyno CD123 transfected HEK Flp-In cells was assessed.
# [3] = target: T3, human CD123 expressed on cells; assay: flow cytometry competition, MOLM-13 cells, competitor A0110056A10-Alexa647 (0.4 nM)
# Description: as §2
# [4] = target: T1, recombinant human CD123 protein (R&D …); assay: SPR (ProteOn XPR36), CD123 immobilized
# Description: as §1
# [5] = target: T2, cynomolgus CD123 expressed on HEK …; assay: flow cytometry competition, HEK Flp-In cyCD123 cells, competitor A0110056A10-Alexa647 (0.9 nM)
# Description: as §2
# [6] = target: T3, human CD123 expressed on cells; assay: cell-based or functional assay
# [7] = target: T3, human CD123 expressed on cells; assay: cell-based or functional assay; remark: listed apart in the source
# [8] = target: cynomolgus TCR/CD3 expressed on cells (cynomolgus); assay: cell-based or functional assay
# [9] = target: T3, human CD123 expressed on cells; assay: cell-based or functional assay; remark: listed apart in the source
# [10] = target: human CD123 (human, UniProt P26951 19-378); assay: cell-based or functional assay
binder,measurement,setting,value
B1,Kd,[1],1.5 nM
same,koff,[1],0.00051 s⁻¹
same,kon,[1],330000 M⁻¹ s⁻¹
B2,IC50,[2],23 nM
same,IC50,[3],26 nM
same,Kd,[4],22 nM
same,koff,[4],0.00086 s⁻¹
same,kon,[4],40000 M⁻¹ s⁻¹
same,IC50,[5],110 nM
B3,"% lysis, killing of MOLM-13 cells by non-activated human T cells, E:T ratio 2:1",[6],10%
same,"% lysis, killing of MOLM-13 cells by non-activated human T cells, E:T ratio 8:1",[6],12%
same,"% lysis, killing of MOLM-13 cells by pre-activated human T cells, E:T ratio 1:2",[6],18%
same,"% lysis, killing of MOLM-13 cells by pre-activated human T cells, E:T ratio 2:1",[6],31%
same,"% lysis, killing of MOLM-13 cells by pre-activated human T cells, E:T ratio 8:1",[6],43%
same,"EC50 (M), killing of MOLM-13 cells by non-activated human T cells, E:T ratio 2:1",[6],1.9e-09 M
same,"EC50 (M), killing of MOLM-13 cells by non-activated human T cells, E:T ratio 8:1",[6],1.4e-09 M
same,"EC50 (M), killing of MOLM-13 cells by pre-activated human T cells, E:T ratio 1:2",[6],1e-09 M
same,"EC50 (M), killing of MOLM-13 cells by pre-activated human T cells, E:T ratio 2:1",[6],6.8e-10 M
same,"EC50 (M), killing of MOLM-13 cells by pre-activated human T cells, E:T ratio 8:1",[6],2.4e-10 M
same,Kd,[4],2.3 nM
same,koff,[4],0.00019 s⁻¹
same,kon,[4],84000 M⁻¹ s⁻¹
same,"% lysis, redirected human T cell mediated killing of KG1a cells, flow cytometry, E:T 10:1",[7],7%
same,"EC50 (M), redirected human T cell mediated killing of KG1a cells, flow cytometry, E:T 10:1",[7],2.4e-10 M
same,"% lysis, redirected cyno T cell mediated killing of KG1a cells, flow cytometry",[8],7%
same,"EC50 (M), redirected cyno T cell mediated killing of KG1a cells, flow cytometry",[8],1.9e-10 M
B4,Kd,[4],160 nM
same,koff,[4],0.0032 s⁻¹
same,kon,[4],20000 M⁻¹ s⁻¹
B5,Kd,[1],170 nM
same,koff,[1],0.0025 s⁻¹
same,kon,[1],15000 M⁻¹ s⁻¹
B6,"% lysis, redirected human T cell mediated killing of MOLM-13 cells, flow cytometry, E:T 10:1",[9],9%
same,"EC50 (M), redirected human T cell mediated killing of MOLM-13 cells, flow cytometry, E:T 10:1",[9],3e-10 M
B7,"% lysis, redirected cynomolgus T cell mediated killing of KG1a cells, flow cytometry, E:T 10:1",[10],32%
same,"% lysis, redirected human T cell mediated killing of KG1a cells, flow cytometry, E:T 10:1",[10],55%
same,"EC50 (M), redirected cynomolgus T cell mediated killing of KG1a cells, flow cytometry, E:T 10:1",[10],2.8e-10 M
same,"EC50 (M), redirected human T cell mediated killing of KG1a cells, flow cytometry, E:T 10:1",[10],3.1e-10 M
